These results are taken from patent EP4703384A1 (Chia Tai Tianqing Pharmaceutical Group Co., Ltd., dated 2026).

Assay [1] has as its target T1, human GPRC5D protein (human, UniProt Q9NZD1 1-345).
T1 construct: also called hGPRC5D; CHO-K1-hGPRC5D^hi
Briefly: FACS on MM.1S cells.

The target of assay [2] is T1, human GPRC5D protein. As to the kind of experiment: FACS on NCI-H929 cells.
Assay [3] addresses T1, human GPRC5D protein. Briefly: cell-based or functional assay.
In assay [4] the target is T2, T cell surface CD3 (human, UniProt P07766 23-207; P04234 22-171; P09693 23-182). Briefly: cell-based or functional assay.
Assay [5] concerns the target T1, human GPRC5D protein. As to the kind of experiment: FACS on RPMI-8226 cells.
The target in assay [6] is T2, T cell surface CD3. Briefly: FACS on human CD3+ T cells.

T2 sequence (P07766 23-207 limits assumed, chain 1 of 3): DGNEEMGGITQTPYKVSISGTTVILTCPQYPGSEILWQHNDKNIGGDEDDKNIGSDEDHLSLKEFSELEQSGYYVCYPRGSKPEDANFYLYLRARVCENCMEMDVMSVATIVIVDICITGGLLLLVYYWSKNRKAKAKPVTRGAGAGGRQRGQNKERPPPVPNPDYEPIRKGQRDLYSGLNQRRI
T2 sequence (P04234 22-171 limits assumed, chain 2 of 3): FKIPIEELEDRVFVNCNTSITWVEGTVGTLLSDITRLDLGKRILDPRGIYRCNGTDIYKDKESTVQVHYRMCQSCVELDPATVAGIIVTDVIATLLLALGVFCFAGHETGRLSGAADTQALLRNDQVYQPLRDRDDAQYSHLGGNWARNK
T2 sequence (P09693 23-182 limits assumed, chain 3 of 3): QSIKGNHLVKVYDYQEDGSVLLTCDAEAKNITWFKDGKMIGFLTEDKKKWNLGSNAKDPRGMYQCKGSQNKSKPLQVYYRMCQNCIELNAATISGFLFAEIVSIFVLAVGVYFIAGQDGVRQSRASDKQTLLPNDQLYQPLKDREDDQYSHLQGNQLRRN
T1 sequence (Q9NZD1 whole entry): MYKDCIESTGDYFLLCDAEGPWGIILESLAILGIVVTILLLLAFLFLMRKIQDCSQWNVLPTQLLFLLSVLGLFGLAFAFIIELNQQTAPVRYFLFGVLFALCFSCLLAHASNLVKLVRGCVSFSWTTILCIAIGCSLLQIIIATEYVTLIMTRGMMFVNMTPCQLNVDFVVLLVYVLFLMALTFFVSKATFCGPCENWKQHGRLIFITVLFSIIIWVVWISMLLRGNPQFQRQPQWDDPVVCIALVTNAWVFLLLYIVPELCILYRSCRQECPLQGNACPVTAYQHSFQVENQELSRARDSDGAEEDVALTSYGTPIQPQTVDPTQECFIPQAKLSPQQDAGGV

B1: GC35 (bispecific antibody, human IgG1, kappa, L234A L235A)
heavy: EVQLVQSGAEVVKPGASVKMSCKASGYTFTNYVMHWVKQAPGQGLEWMGYFNPYNDGTNYNEKFKGRVTLTSDTSANTAYMELSSLRSEDTAVYYCARGGVRRYFDVWGQGTTVTVSSASTKGPSVFPLAPSSKSTSGGTAALGCLVKDYFPEPVTVSWNSGALTSGVHTFPAVLQSSGLYSLSSVVTVPSSSLGTQTYICNVNHKPSNTKVDKKVEPKSCDKTHTCPPCPAPEAAGGPSVFLFPPKPKDTLMISRTPEVTCVVVDVSHEDPEVKFNWYVDGVEVHNAKTKPREEQYNSTYRVVSVLTVLHQDWLNGKEYKCKVSNKALAAPIEKTISKAKGQPREPQVCTLPPSREEMTKNQVSLSCAVKGFYPSDIAVEWESNGQPENNYKTTPPVLDSDGSFFLVSKLTVDKSRWQQGNVFSCSVMHEALHNHYTQKSLSLSPGK
light: DIQMTQSPSSLSASVGDRVTITCRASQDIGSNLNWLQLGPGGAIKRLIYATFSLDSGVPSRFSGSRSGSDYTLTISSLQPEDFVDYYCQQYANFPPTFGGGTKVEIKRTVAAPSVFIFPPSDEQLKSGTASVVCLLNNFYPREAKVQWKVDNALQSGNSQESVTEQDSKDSTYSLSSTLTLSKADYEKHKVYACEVTHQGLSSPVTKSFNRGEC
chain: ELVVTQEPSLTTSPGGTVTLTCRSSTGAVTTSNYANWVQQKPGQAPRGLIGGTNKRAPGTPARFSGSLLGGKAALTITGVQPEDEAEYYCALWYSNLWVFGGGTKLTVLGGGGSGGGGSGGGGSEVQLVESGGGLVQPGGSLRLSCAASGFTFNTYAMNWVRQAPGKGLEWVARIRSKYNNYATYYADSVKDRFTISRDDSKNTAYLQMNNLKTEDTAMYYCVRHGNFGNSYVSWFAYWGQGTLVTVSSGEPKSSDKTHTCPPCPAPEAAGGPSVFLFPPKPKDTLMISRTPEVTCVVVDVSHEDPEVKFNWYVDGVEVHNAKTKPREEQYNSTYRVVSVLTVLHQDWLNGKEYKCKVSNKALAAPIEKTISKAKGQPREPQVYTLPPCREEMTKNQVSLWCLVKGFYPSDIAVEWESNGQPENNYKTTPPVLDSDGSFFLYSKLTVDKSRWQQGNVFSCSVMHEALHNRYTQKSLSLSPGK
notes: also called anti-GPRC5D/anti-CD3 bispecific antibody GC35
In turn, B1 displayed an EC50 with human GPRC5D protein [1] of 3750 pM. In the assay with human GPRC5D protein [2], this molecule came in with a half-maximal effective concentration (EC50) of 3040 pM. Also, in the assay with human GPRC5D protein [3], the “Lysis EC50(nM), MM.1S target cells with human PBMC” value was 0.00534 nM; the “Lysis EC50(nM), NCI-H929 target cells with human PBMC” value was 0.00592 nM; the “Lysis EC50(nM), RPMI-8226 target cells with human PBMC” value turned out to be 0.0163 nM. For the same molecule, in the assay with T cell surface CD3 [4], the “CD25/CD4 EC50(nM), activation of T cells in the presence of MM.1S” value was 0.00999 nM; the “CD25/CD8 EC50(nM), activation of T cells in the presence of MM.1S” value was found to be 0.00879 nM; the “CD69/CD4 EC50(nM), activation of T cells in the presence of MM.1S” value is 0.00738 nM; the “CD69/CD8 EC50(nM), activation of T cells in the presence of MM.1S” value is 0.00458 nM. The same molecule gave a concentration giving a half-maximal response (EC50) with human GPRC5D protein [5] of 15900 pM. In addition, in the assay with T cell surface CD3 [6], it took 48900 pM to reach a half-maximal effect (EC50) and the “Top(MFI)” value amounted to 54700 MFI.
